Consider 94 variants from the supplement of paper PMC10567573.

Sequences and labels used below:
B1: LOXL2 (parent)
chain: HISSCKLGPQVSLDPMKNVTCENG
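Note: lentivirally expressed fusions sorted by FACS into six bins by GFP to DsRed ratio, PSI derived from sequencing read proportions per bin multiplied by bin number.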

The data set covers variants of B1. The data set is described as follows: protein stability index of a GFP-peptide fusion (GPS, HEK-293T) (PSI 1-6); higher = more stable. Particulars: c terminus: a fixed tail appended.
Take HISSCKTGPQVSLDPMKNVTCENG: the protein stability index came out at 4.54.

In the case of HISSCKCGPQVSLDPMKNVTCENG, the protein stability index was found to be 3.59.

As for HISSCKPGPQVSLDPMKNVTCENG, the protein stability index was 4.51.

As to HISSCKQGPQVSLDPMKNVTCENG, the protein stability index was 4.32.

As for HISSCKWGPQVSLDPMKNVTCENG, the protein stability index stood at 2.28.

On to HISSCKGGPQVSLDPMKNVTCENG, for which the protein stability index was found to be 4.76.

For the variant HISSCKEGPQVSLDPMKNVTCENG, the protein stability index is 4.79.

On to HISSCKDGPQVSLDPMKNVTCENG, for which the protein stability index amounted to 4.15.

As for HISSCKAGPQVSLDPMKNVTCENG, the protein stability index was determined as 4.62.

Regarding HISSCKIGPQVSLDPMKNVTCENG, the protein stability index was 4.57.

Consider HISSCKVGPQVSLDPMKNVTCENG, for which the protein stability index turned out to be 4.19.

For HISSCKFGPQVSLDPMKNVTCENG, the protein stability index was 4.1.

Regarding HISSCKYGPQVSLDPMKNVTCENG, the protein stability index stood at 3.74.

In the case of HISSCKKGPQVSLDPMKNVTCENG, the protein stability index came out at 4.33.

In the case of HISSCKHGPQVSLDPMKNVTCENG, the protein stability index came to 4.19.

Turning to HISSCKRGPQVSLDPMKNVTCENG, the protein stability index was 4.15.

As for HISSCKSGPQVSLDPMKNVTCENG, the protein stability index was 3.96.

HISSCKMGPQVSLDPMKNVTCENG: the protein stability index is 4.31.

With HISSCKNGPQVSLDPMKNVTCENG, the protein stability index came out at 4.37.

Take HISSCKLGPRVSLDPMKNVTCENG: the protein stability index came to 3.85.

For the variant HISSCKLGPPVSLDPMKNVTCENG, the protein stability index amounted to 3.68.

With HISSCKLGPEVSLDPMKNVTCENG, the protein stability index came to 4.42.

Take HISSCKLGPYVSLDPMKNVTCENG: the protein stability index worked out at 3.07.

HISSCKLGPFVSLDPMKNVTCENG: the protein stability index turned out to be 3.07.

With HISSCKLGPSVSLDPMKNVTCENG, the protein stability index was 4.33.

Regarding HISSCKLGPVVSLDPMKNVTCENG, the protein stability index stood at 3.56.

As for HISSCKLGPCVSLDPMKNVTCENG, the protein stability index amounted to 3.19.

Turning to HISSCKLGPMVSLDPMKNVTCENG, the protein stability index stood at 3.37.

For the variant HISSCKLGPDVSLDPMKNVTCENG, the protein stability index was 4.58.

On to HISSCKLGPGVSLDPMKNVTCENG, for which the protein stability index is 4.53.

On to HISSCKLGPWVSLDPMKNVTCENG, for which the protein stability index turned out to be 2.08.

HISSCKLGPNVSLDPMKNVTCENG: the protein stability index was determined as 3.92.

Turning to HISSCKLGPKVSLDPMKNVTCENG, the protein stability index came out at 3.77.

Regarding HISSCKLGPHVSLDPMKNVTCENG, the protein stability index is 3.52.

HISSCKLGPTVSLDPMKNVTCENG: the protein stability index was determined as 3.36.

As to HISSCKLGPLVSLDPMKNVTCENG, the protein stability index is 3.32.

As for HISSCKLGPIVSLDPMKNVTCENG, the protein stability index was determined as 3.54.

For HISSCKLGPAVSLDPMKNVTCENG, the protein stability index is 4.29.

In the case of HISSCGLGPQVSLDPMKNVTCENG, the protein stability index worked out at 3.97.

For HISSCMLGPQVSLDPMKNVTCENG, the protein stability index came out at 4.15.

In the case of HISSCWLGPQVSLDPMKNVTCENG, the protein stability index turned out to be 2.64.

Regarding HISSCELGPQVSLDPMKNVTCENG, the protein stability index worked out at 4.35.

Take HISSCQLGPQVSLDPMKNVTCENG: the protein stability index was 4.04.

For HISSCHLGPQVSLDPMKNVTCENG, the protein stability index was 4.

Turning to HISSCCLGPQVSLDPMKNVTCENG, the protein stability index is 3.73.

As to HISSCPLGPQVSLDPMKNVTCENG, the protein stability index is 4.48.

Regarding HISSCFLGPQVSLDPMKNVTCENG, the protein stability index worked out at 2.98.

Take HISSCILGPQVSLDPMKNVTCENG: the protein stability index was determined as 3.57.

On to HISSCYLGPQVSLDPMKNVTCENG, for which the protein stability index came to 3.44.

Consider HISSCALGPQVSLDPMKNVTCENG, for which the protein stability index is 3.96.

In the case of HISSCVLGPQVSLDPMKNVTCENG, the protein stability index turned out to be 3.95.

Consider HISSCRLGPQVSLDPMKNVTCENG, for which the protein stability index amounted to 3.94.

HISSCDLGPQVSLDPMKNVTCENG: the protein stability index was determined as 4.9.

As for HISSCSLGPQVSLDPMKNVTCENG, the protein stability index came out at 4.34.

Take HISSCLLGPQVSLDPMKNVTCENG: the protein stability index stood at 4.22.

As for HISSCNLGPQVSLDPMKNVTCENG, the protein stability index worked out at 4.32.

Regarding HISSCTLGPQVSLDPMKNVTCENG, the protein stability index was determined as 4.36.

Regarding HISYCKLGPQVSLDPMKNVTCENG, the protein stability index stood at 3.44.

As for HISWCKLGPQVSLDPMKNVTCENG, the protein stability index was found to be 2.32.

Consider HISSCKLGPQVSLCPMKNVTCENG, for which the protein stability index was found to be 2.95.

As for HISSCKLGPQVSLNPMKNVTCENG, the protein stability index worked out at 3.33.

For the variant HISSCKLGPQVSLFPMKNVTCENG, the protein stability index was determined as 2.46.

Take HISSCKLGPQVSLIPMKNVTCENG: the protein stability index came out at 3.44.

Take HISSCKLGPQVSLPPMKNVTCENG: the protein stability index was 3.78.

HISSCKLGPQVSLMPMKNVTCENG: the protein stability index stood at 3.22.

For the variant HISSCKLGPQVSLAPMKNVTCENG, the protein stability index turned out to be 3.51.

As to HISSCKLGPQVSLQPMKNVTCENG, the protein stability index was found to be 3.58.

Consider HISSCKLGPQVSLLPMKNVTCENG, for which the protein stability index turned out to be 3.22.

Regarding HISSCKLGPQVSLRPMKNVTCENG, the protein stability index worked out at 3.33.

With HISSCKLGPQVSLSPMKNVTCENG, the protein stability index was found to be 3.65.

Turning to HISSCKLGPQVSLGPMKNVTCENG, the protein stability index turned out to be 3.45.

With HISSCKLGPQVSLKPMKNVTCENG, the protein stability index came to 3.5.

As to HISSCKLGPQVSLEPMKNVTCENG, the protein stability index came out at 4.12.

In the case of HISSCKLGPQVSLHPMKNVTCENG, the protein stability index was 3.61.

On to HISSCKLGPQVCLDPMKNVTCENG, for which the protein stability index came out at 3.43.

Consider HISSCKLGPQVLLDPMKNVTCENG, for which the protein stability index came out at 3.31.

Consider HISSCKLGPQVVLDPMKNVTCENG, for which the protein stability index worked out at 3.92.

As for HISSCKLGPQVKLDPMKNVTCENG, the protein stability index came out at 3.9.

HISSCKLGPQVFLDPMKNVTCENG: the protein stability index was found to be 3.27.

Take HISSCKLGPQVHLDPMKNVTCENG: the protein stability index came out at 4.

On to HISSCKLGPQVRLDPMKNVTCENG, for which the protein stability index turned out to be 3.48.

With HISSCKLGPQVQLDPMKNVTCENG, the protein stability index was 4.44.

For HISSCKLGPQVYLDPMKNVTCENG, the protein stability index was found to be 3.24.

Regarding HISSCKLGPQVILDPMKNVTCENG, the protein stability index was determined as 3.68.

HISSCKLGPQVNLDPMKNVTCENG: the protein stability index amounted to 3.9.

Take HISSCKLGPQVGLDPMKNVTCENG: the protein stability index was found to be 3.93.

Turning to HISSCKLGPQVPLDPMKNVTCENG, the protein stability index amounted to 4.18.

In the case of HISSCKLGPQVTLDPMKNVTCENG, the protein stability index is 4.34.

In the case of HISSCKLGPQVDLDPMKNVTCENG, the protein stability index came out at 3.72.

As to HISSCKLGPQVALDPMKNVTCENG, the protein stability index came out at 4.3.

As for HISSCKLGPQVMLDPMKNVTCENG, the protein stability index was 3.57.

In the case of HISSCKLGPQVELDPMKNVTCENG, the protein stability index turned out to be 4.48.

With HISSCKLGPQVWLDPMKNVTCENG, the protein stability index is 2.47.

In the case of HISSCKLGPQVSPDPMKNVTCENG, the protein stability index came out at 4.22.
